# Values of other authors as cited in article PMC9805914.
# Biological target: SARS-CoV-2 spike RGD motif RGD motif (Severe acute respiratory syndrome coronavirus 2) (UniProt P0DTC2)
substance,measurement,value
integrin αvβ8 (from UniProt P06756),Kd,4 nM
